B1: KB001 mouse Fab VL T100F (Fab, V domains shown)
VH: EVQLKQSGPGLVAPSQSLSITCTVSGFSLSIYSVHWVRQPPGKGLEWLGMIWGGGSSDYNSALKSRLSISKDNSKSQVFLKMNSLQTDDTAMYYCARNGNFYAMDYWGQGTSVTVSS
VL: QIVLTQSPAIMSASLGERVTMTCTASSSVSSSFLHWYQQKPGSSPQLWIYSTSNLASGVPARFSGSGSGTSYSLTISSMEAEDAATYYCHQYHHSPYIYFFGGGTKLEIK
B2: KB001 mouse Fab VL T100S (Fab, V domains shown)
VH: EVQLKQSGPGLVAPSQSLSITCTVSGFSLSIYSVHWVRQPPGKGLEWLGMIWGGGSSDYNSALKSRLSISKDNSKSQVFLKMNSLQTDDTAMYYCARNGNFYAMDYWGQGTSVTVSS
VL: QIVLTQSPAIMSASLGERVTMTCTASSSVSSSFLHWYQQKPGSSPQLWIYSTSNLASGVPARFSGSGSGTSYSLTISSMEAEDAATYYCHQYHHSPYIYSFGGGTKLEIK
B3: KB001 mouse Fab VL T24I (Fab, V domains shown)
VH: EVQLKQSGPGLVAPSQSLSITCTVSGFSLSIYSVHWVRQPPGKGLEWLGMIWGGGSSDYNSALKSRLSISKDNSKSQVFLKMNSLQTDDTAMYYCARNGNFYAMDYWGQGTSVTVSS
VL: QIVLTQSPAIMSASLGERVTMTCIASSSVSSSFLHWYQQKPGSSPQLWIYSTSNLASGVPARFSGSGSGTSYSLTISSMEAEDAATYYCHQYHHSPYIYTFGGGTKLEIK
B4: KB001 mouse Fab VL T24L (Fab, V domains shown)
VH: EVQLKQSGPGLVAPSQSLSITCTVSGFSLSIYSVHWVRQPPGKGLEWLGMIWGGGSSDYNSALKSRLSISKDNSKSQVFLKMNSLQTDDTAMYYCARNGNFYAMDYWGQGTSVTVSS
VL: QIVLTQSPAIMSASLGERVTMTCLASSSVSSSFLHWYQQKPGSSPQLWIYSTSNLASGVPARFSGSGSGTSYSLTISSMEAEDAATYYCHQYHHSPYIYTFGGGTKLEIK
B5: KB001 mouse Fab VL T24Q (Fab, V domains shown)
VH: EVQLKQSGPGLVAPSQSLSITCTVSGFSLSIYSVHWVRQPPGKGLEWLGMIWGGGSSDYNSALKSRLSISKDNSKSQVFLKMNSLQTDDTAMYYCARNGNFYAMDYWGQGTSVTVSS
VL: QIVLTQSPAIMSASLGERVTMTCQASSSVSSSFLHWYQQKPGSSPQLWIYSTSNLASGVPARFSGSGSGTSYSLTISSMEAEDAATYYCHQYHHSPYIYTFGGGTKLEIK
B6: KB001 mouse Fab VL T24G (Fab, V domains shown)
VH: EVQLKQSGPGLVAPSQSLSITCTVSGFSLSIYSVHWVRQPPGKGLEWLGMIWGGGSSDYNSALKSRLSISKDNSKSQVFLKMNSLQTDDTAMYYCARNGNFYAMDYWGQGTSVTVSS
VL: QIVLTQSPAIMSASLGERVTMTCGASSSVSSSFLHWYQQKPGSSPQLWIYSTSNLASGVPARFSGSGSGTSYSLTISSMEAEDAATYYCHQYHHSPYIYTFGGGTKLEIK
B7: KB001 mouse Fab VL A25G (Fab, V domains shown)
VH: EVQLKQSGPGLVAPSQSLSITCTVSGFSLSIYSVHWVRQPPGKGLEWLGMIWGGGSSDYNSALKSRLSISKDNSKSQVFLKMNSLQTDDTAMYYCARNGNFYAMDYWGQGTSVTVSS
VL: QIVLTQSPAIMSASLGERVTMTCTGSSSVSSSFLHWYQQKPGSSPQLWIYSTSNLASGVPARFSGSGSGTSYSLTISSMEAEDAATYYCHQYHHSPYIYTFGGGTKLEIK
B8: KB001 mouse Fab VL T100W (Fab, V domains shown)
VH: EVQLKQSGPGLVAPSQSLSITCTVSGFSLSIYSVHWVRQPPGKGLEWLGMIWGGGSSDYNSALKSRLSISKDNSKSQVFLKMNSLQTDDTAMYYCARNGNFYAMDYWGQGTSVTVSS
VL: QIVLTQSPAIMSASLGERVTMTCTASSSVSSSFLHWYQQKPGSSPQLWIYSTSNLASGVPARFSGSGSGTSYSLTISSMEAEDAATYYCHQYHHSPYIYWFGGGTKLEIK
B9: KB001 mouse Fab VL A25P (Fab, V domains shown)
VH: EVQLKQSGPGLVAPSQSLSITCTVSGFSLSIYSVHWVRQPPGKGLEWLGMIWGGGSSDYNSALKSRLSISKDNSKSQVFLKMNSLQTDDTAMYYCARNGNFYAMDYWGQGTSVTVSS
VL: QIVLTQSPAIMSASLGERVTMTCTPSSSVSSSFLHWYQQKPGSSPQLWIYSTSNLASGVPARFSGSGSGTSYSLTISSMEAEDAATYYCHQYHHSPYIYTFGGGTKLEIK
B10: KB001 mouse Fab VL T100H (Fab, V domains shown)
VH: EVQLKQSGPGLVAPSQSLSITCTVSGFSLSIYSVHWVRQPPGKGLEWLGMIWGGGSSDYNSALKSRLSISKDNSKSQVFLKMNSLQTDDTAMYYCARNGNFYAMDYWGQGTSVTVSS
VL: QIVLTQSPAIMSASLGERVTMTCTASSSVSSSFLHWYQQKPGSSPQLWIYSTSNLASGVPARFSGSGSGTSYSLTISSMEAEDAATYYCHQYHHSPYIYHFGGGTKLEIK
B11: KB001 mouse Fab VL T100L (Fab, V domains shown)
VH: EVQLKQSGPGLVAPSQSLSITCTVSGFSLSIYSVHWVRQPPGKGLEWLGMIWGGGSSDYNSALKSRLSISKDNSKSQVFLKMNSLQTDDTAMYYCARNGNFYAMDYWGQGTSVTVSS
VL: QIVLTQSPAIMSASLGERVTMTCTASSSVSSSFLHWYQQKPGSSPQLWIYSTSNLASGVPARFSGSGSGTSYSLTISSMEAEDAATYYCHQYHHSPYIYLFGGGTKLEIK
B12: KB001 mouse Fab VL T24N/G67D (Fab, V domains shown)
VH: EVQLKQSGPGLVAPSQSLSITCTVSGFSLSIYSVHWVRQPPGKGLEWLGMIWGGGSSDYNSALKSRLSISKDNSKSQVFLKMNSLQTDDTAMYYCARNGNFYAMDYWGQGTSVTVSS
VL: QIVLTQSPAIMSASLGERVTMTCNASSSVSSSFLHWYQQKPGSSPQLWIYSTSNLASGVPARFSGSDSGTSYSLTISSMEAEDAATYYCHQYHHSPYIYTFGGGTKLEIK
B13: KB001 mouse Fab VL T100E (Fab, V domains shown)
VH: EVQLKQSGPGLVAPSQSLSITCTVSGFSLSIYSVHWVRQPPGKGLEWLGMIWGGGSSDYNSALKSRLSISKDNSKSQVFLKMNSLQTDDTAMYYCARNGNFYAMDYWGQGTSVTVSS
VL: QIVLTQSPAIMSASLGERVTMTCTASSSVSSSFLHWYQQKPGSSPQLWIYSTSNLASGVPARFSGSGSGTSYSLTISSMEAEDAATYYCHQYHHSPYIYEFGGGTKLEIK
B14: KB001 mouse Fab VL T24N (Fab, V domains shown)
VH: EVQLKQSGPGLVAPSQSLSITCTVSGFSLSIYSVHWVRQPPGKGLEWLGMIWGGGSSDYNSALKSRLSISKDNSKSQVFLKMNSLQTDDTAMYYCARNGNFYAMDYWGQGTSVTVSS
VL: QIVLTQSPAIMSASLGERVTMTCNASSSVSSSFLHWYQQKPGSSPQLWIYSTSNLASGVPARFSGSGSGTSYSLTISSMEAEDAATYYCHQYHHSPYIYTFGGGTKLEIK
B15: KB001 mouse Fab VL T100M (Fab, V domains shown)
VH: EVQLKQSGPGLVAPSQSLSITCTVSGFSLSIYSVHWVRQPPGKGLEWLGMIWGGGSSDYNSALKSRLSISKDNSKSQVFLKMNSLQTDDTAMYYCARNGNFYAMDYWGQGTSVTVSS
VL: QIVLTQSPAIMSASLGERVTMTCTASSSVSSSFLHWYQQKPGSSPQLWIYSTSNLASGVPARFSGSGSGTSYSLTISSMEAEDAATYYCHQYHHSPYIYMFGGGTKLEIK
B16: KB001 mouse Fab VL T24K/R18S (Fab, V domains shown)
VH: EVQLKQSGPGLVAPSQSLSITCTVSGFSLSIYSVHWVRQPPGKGLEWLGMIWGGGSSDYNSALKSRLSISKDNSKSQVFLKMNSLQTDDTAMYYCARNGNFYAMDYWGQGTSVTVSS
VL: QIVLTQSPAIMSASLGESVTMTCKASSSVSSSFLHWYQQKPGSSPQLWIYSTSNLASGVPARFSGSGSGTSYSLTISSMEAEDAATYYCHQYHHSPYIYTFGGGTKLEIK
B17: KB001 mouse Fab VL T100R (Fab, V domains shown)
VH: EVQLKQSGPGLVAPSQSLSITCTVSGFSLSIYSVHWVRQPPGKGLEWLGMIWGGGSSDYNSALKSRLSISKDNSKSQVFLKMNSLQTDDTAMYYCARNGNFYAMDYWGQGTSVTVSS
VL: QIVLTQSPAIMSASLGERVTMTCTASSSVSSSFLHWYQQKPGSSPQLWIYSTSNLASGVPARFSGSGSGTSYSLTISSMEAEDAATYYCHQYHHSPYIYRFGGGTKLEIK
B18: KB001 mouse Fab VL T24A (Fab, V domains shown)
VH: EVQLKQSGPGLVAPSQSLSITCTVSGFSLSIYSVHWVRQPPGKGLEWLGMIWGGGSSDYNSALKSRLSISKDNSKSQVFLKMNSLQTDDTAMYYCARNGNFYAMDYWGQGTSVTVSS
VL: QIVLTQSPAIMSASLGERVTMTCAASSSVSSSFLHWYQQKPGSSPQLWIYSTSNLASGVPARFSGSGSGTSYSLTISSMEAEDAATYYCHQYHHSPYIYTFGGGTKLEIK
B19: KB001 mouse Fab VL A25Y (Fab, V domains shown)
VH: EVQLKQSGPGLVAPSQSLSITCTVSGFSLSIYSVHWVRQPPGKGLEWLGMIWGGGSSDYNSALKSRLSISKDNSKSQVFLKMNSLQTDDTAMYYCARNGNFYAMDYWGQGTSVTVSS
VL: QIVLTQSPAIMSASLGERVTMTCTYSSSVSSSFLHWYQQKPGSSPQLWIYSTSNLASGVPARFSGSGSGTSYSLTISSMEAEDAATYYCHQYHHSPYIYTFGGGTKLEIK

“And” between values parts separate entries of the source, which are not always exact repeats. Equal entries are not always repeated.

For this assay, the target named is HRgpA-6H (Porphyromonas gingivalis) (UniProt P28784). Put plainly: ELISA, FASEBA Fab on coated HRgpA-6H. A general note: An ELISA detects its analyte on a solid surface through an enzyme-linked reagent.
UniProt P28784, sequence (P28784 228-991): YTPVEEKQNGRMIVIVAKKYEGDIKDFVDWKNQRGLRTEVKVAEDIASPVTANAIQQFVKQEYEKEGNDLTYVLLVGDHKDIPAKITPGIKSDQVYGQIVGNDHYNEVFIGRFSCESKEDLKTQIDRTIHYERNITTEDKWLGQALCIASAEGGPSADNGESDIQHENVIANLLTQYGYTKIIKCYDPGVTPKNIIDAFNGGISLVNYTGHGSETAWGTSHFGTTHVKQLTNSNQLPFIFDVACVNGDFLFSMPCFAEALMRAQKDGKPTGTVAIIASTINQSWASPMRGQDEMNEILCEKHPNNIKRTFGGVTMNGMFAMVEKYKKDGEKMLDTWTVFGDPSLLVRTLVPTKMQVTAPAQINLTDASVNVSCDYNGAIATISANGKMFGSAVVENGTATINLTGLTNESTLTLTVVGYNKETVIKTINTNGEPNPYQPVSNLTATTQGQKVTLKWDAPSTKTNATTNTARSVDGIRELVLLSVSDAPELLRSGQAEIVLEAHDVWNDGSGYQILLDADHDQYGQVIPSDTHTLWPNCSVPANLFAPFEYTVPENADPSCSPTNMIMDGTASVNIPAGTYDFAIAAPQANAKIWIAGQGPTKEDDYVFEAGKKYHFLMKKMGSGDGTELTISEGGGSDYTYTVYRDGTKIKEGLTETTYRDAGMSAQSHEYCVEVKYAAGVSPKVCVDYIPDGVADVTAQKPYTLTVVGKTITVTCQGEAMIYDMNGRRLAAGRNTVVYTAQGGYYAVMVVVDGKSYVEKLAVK
On to B1, for which the OD450nm is 0.552 and the Ratio OD(Variant)/OD(WT) came out at 1.05.
On to B2, for which the OD450nm is 0.602 and 0.664 and 0.625; the Ratio OD(Variant)/OD(WT) is 1.15 and 1.27 and 1.19.
For the molecule B3, the OD450nm was 0.741 and the Ratio OD(Variant)/OD(WT) is 0.964.
Regarding B4, the OD450nm is 0.753 and 0.752 and 0.667; the Ratio OD(Variant)/OD(WT) was 0.979 and 0.978 and 0.867.
In the case of B5, the OD450nm worked out at 0.765 and the Ratio OD(Variant)/OD(WT) was found to be 0.995.
Regarding B6, the OD450nm is 0.686 and 0.735; the Ratio OD(Variant)/OD(WT) was 0.892 and 0.956.
Take B7: the OD450nm is 0.668 and 0.699 and 0.673; the Ratio OD(Variant)/OD(WT) was 0.853 and 0.893 and 0.86.
For the molecule B8, the OD450nm is 0.585 and the Ratio OD(Variant)/OD(WT) amounted to 1.12.
On to B9, for which the OD450nm is 0.742 and 0.766 and 0.749; the Ratio OD(Variant)/OD(WT) was 0.948 and 0.978 and 0.957.
With B10, the OD450nm is 0.597 and 0.631; the Ratio OD(Variant)/OD(WT) was 1.14 and 1.21.
In the case of B11, the OD450nm is 0.587 and 0.566; the Ratio OD(Variant)/OD(WT) was 1.12 and 1.08.
As to B12, the OD450nm was 0.755 and the Ratio OD(Variant)/OD(WT) amounted to 0.982.
With B13, the OD450nm is 0.613 and 0.621 and 0.674; the Ratio OD(Variant)/OD(WT) was 1.17 and 1.19 and 1.29.
For the molecule B14, the OD450nm is 0.715 and 0.8; the Ratio OD(Variant)/OD(WT) was 0.93 and 1.04.
As for B15, the OD450nm turned out to be 0.589 and the Ratio OD(Variant)/OD(WT) was 1.12.
The matching figures for B16: 0.761 and 0.99.
The matching figures for B17: 0.616 and 1.18.
For B18, in that order: 0.757 and 0.984.
Turning to B19, the OD450nm is 0.755 and 0.757; the Ratio OD(Variant)/OD(WT) is 0.964 and 0.967.

Source of the values: patent US20230365662A1.
